Test results taken from patent publication US20230040568A1 (ALBERT EINSTEIN COLLEGE OF MEDICINE, published 2023).
One block for each binder: values may come before it.

B6: KIR3DL3 expressed on cells (3T3 cell line expressing KIR3DL3; KIR3DL3+ NK92 cells; primary KIR3DL3+ NK cells and CD8 T cells) (receptor)
chain: QDKPFLSAWPGTVVSEGQHVTLQCRSRLGFNEFSLSKEDGMPVPELYNRIFRNSFLMGPVTPAHAGTYRCCSSHPHSPTGWSAPSNPVVIMVTGVHRKPSLLAHPGPLVKSGETVILQCWSDVRFERFLLHREGITEDPLRLVGQLHDAGSQVNYSMGPMTPALAGTYRCFGSVTHLPYELSAPSDPLDIVVVGLYGKPSLSAQPGPTVQAGENVTLSCSSRSLFDIYHLSREAEAGELRLTAVLRVNGTFQANFPLGPVTHGGNYRCFGSFRALPHAWSDPSDPLPVSVTGNSRNLHVLIGTSVVIIPFAILLFFLLHRWCANKKNAVVMDQEPAGNRTVNREDSDEQDPQEVTYAQLNHCVFTQRKITRPSQRPKTPPTDTSV
notes: also called KIR3DL3-expressing 3T3 cells; KIR3DL3 WT

Tests used:
[1] = biological target: T1, KIR3DL3 protein (antigen of the affinity determination of Table 3) (human, UniProt Q8N743 26-325, limits assumed); test: method and antigen format not stated
T1 construct: also called human KIR3DL3

[2] = biological target: T2, HHLA2 expressed on cells (3T3 cell line expressing HHLA2; HHLA2/K562) (UniProt Q9UM44 23-414, limits assumed); test: FACS, staining of 3T3 cells expressing HHLA2 (FIG. 2C)
T2 construct: whole, on cells
T2 sequence (looked up): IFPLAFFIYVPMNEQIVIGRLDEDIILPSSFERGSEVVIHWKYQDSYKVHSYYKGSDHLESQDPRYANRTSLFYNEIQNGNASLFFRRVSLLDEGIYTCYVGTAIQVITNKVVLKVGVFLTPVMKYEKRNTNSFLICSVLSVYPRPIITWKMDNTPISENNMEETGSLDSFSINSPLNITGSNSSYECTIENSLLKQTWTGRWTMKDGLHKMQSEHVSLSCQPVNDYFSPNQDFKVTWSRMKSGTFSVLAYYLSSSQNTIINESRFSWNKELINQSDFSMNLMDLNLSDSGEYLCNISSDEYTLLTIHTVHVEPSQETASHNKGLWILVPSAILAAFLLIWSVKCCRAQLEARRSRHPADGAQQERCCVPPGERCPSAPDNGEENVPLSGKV

[3] = biological target: T3, HHLA2 EC-Ig-Fc fusion polypeptide (UniProt Q9UM44 23-344); test: FACS, staining of 3T3 cells expressing TMIGD2 (FIG. 8)
T3 construct: extracellular domain; also called whole extracellular part of HHLA2; not shown: Ig Fc part
T3 sequence (looked up): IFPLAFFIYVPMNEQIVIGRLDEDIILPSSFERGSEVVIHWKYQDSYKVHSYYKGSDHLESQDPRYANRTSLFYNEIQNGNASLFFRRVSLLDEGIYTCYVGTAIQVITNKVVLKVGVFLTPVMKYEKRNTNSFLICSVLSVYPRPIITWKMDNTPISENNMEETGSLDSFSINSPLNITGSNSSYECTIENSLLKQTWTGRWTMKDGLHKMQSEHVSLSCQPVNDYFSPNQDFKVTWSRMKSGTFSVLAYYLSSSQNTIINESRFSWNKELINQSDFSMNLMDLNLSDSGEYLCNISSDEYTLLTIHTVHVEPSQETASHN
Source text: To examine the binding of TMIGD2 to HHLA2, 3T3 cell lines expressing TMIGD2 were stained with a HHLA2 EC-Ig-Fc fusion polypeptide, a HHLA-2-IgV1-hIgG fusion polypeptide, or Ig (control) (FIG. 8).

[4] = biological target: T2, HHLA2 expressed on cells (3T3 cell line …); test: intercellular conjugate assay (FIG. 2B)
[5] = biological target: T2, HHLA2 expressed on cells (3T3 cell line …); test: FACS on 3T3 cells expressing HHLA2, TMIGD2-mIg (FIGS. 3A-3B)
Description: FIG. 3A is a chart depicting mean fluorescent intensity (MFI) of 3T3 cells expressing HHLA2 that were incubated with TMIGD2-mIg fusion polypeptide or control mIgG at the indicated concentrations prior to staining with 10 μg/ml KIR3DL3-hIg followed by Allophycocyanin (APC)-conjugated anti-human IgG Fc.
FIG. 3B is a chart depicting MFI of 3T3 cells expressing HHLA2 that were incubated with KIR3DL3-hIg fusion polypeptide or control hIgG at the indicated concentrations prior to staining with 10 μg/ml TMIGD2-mIg followed by APC anti-mouse IgG Fc.

[6] = biological target: T4, KIR3DL2 expressed on 3T3 cells (UniProt P43630 22-455, limits assumed); test: FACS, HHLA2-Ig staining of 3T3 cells expressing KIR3DL2 (FIG. 2A)
T4 construct: whole, on cells
T4 sequence (P43630 22-455 limits assumed): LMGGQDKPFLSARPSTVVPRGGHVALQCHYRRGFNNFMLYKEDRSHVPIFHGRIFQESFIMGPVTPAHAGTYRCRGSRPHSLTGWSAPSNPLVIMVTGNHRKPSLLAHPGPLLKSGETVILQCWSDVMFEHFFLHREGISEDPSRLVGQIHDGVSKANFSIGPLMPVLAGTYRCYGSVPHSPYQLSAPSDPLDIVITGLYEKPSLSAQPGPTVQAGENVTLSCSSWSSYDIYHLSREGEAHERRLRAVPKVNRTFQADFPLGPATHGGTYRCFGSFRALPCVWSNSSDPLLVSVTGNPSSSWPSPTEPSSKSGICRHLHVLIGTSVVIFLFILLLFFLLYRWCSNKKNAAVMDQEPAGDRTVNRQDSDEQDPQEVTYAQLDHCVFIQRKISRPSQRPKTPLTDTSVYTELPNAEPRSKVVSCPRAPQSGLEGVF
Source text: (§1) FIG. 2A depicts histograms of 3T3 cell lines expressing KIR3DL1, KIR3DL2, or KIR3DL3 stained with HHLA2-Ig fusion polypeptide (open histograms) or control Ig (shaded histograms). FIG. 2B depicts a plot showing results of an intercellular conjugate assay that indicate 3T3 cell line expressing HHLA2 bound to 3T3 cell line expressing KIR3DL3, but not the control 3T3 cell line. FIG. 2C depicts histograms of a 3T3 cell line expressing HHLA2 bound by the DO domain (red) and the whole extracellular portion (red) of KIR3DL3.
(§2) Subsequent studies reported that HHLA2 is over-expressed in various types of human cancers (Cheng 2018; Cheng 2017; Koirala 2016; Janakiram 2015). To test the binding of HHLA2 to KIR3DL1, KIR3DL2, and KIR3DL3, 3T3 cell lines stable expressing cell surface KIR3DL1, KIR3DL2, or KIR3DL3 were generated.

[7] = biological target: T5, KIR3DL1 expressed on 3T3 cells (UniProt P43629 22-444, limits assumed); test: FACS, HHLA2-Ig staining of 3T3 cells expressing KIR3DL1 (FIG. 2A)
T5 construct: whole, on cells
T5 sequence (P43629 22-444 limits assumed): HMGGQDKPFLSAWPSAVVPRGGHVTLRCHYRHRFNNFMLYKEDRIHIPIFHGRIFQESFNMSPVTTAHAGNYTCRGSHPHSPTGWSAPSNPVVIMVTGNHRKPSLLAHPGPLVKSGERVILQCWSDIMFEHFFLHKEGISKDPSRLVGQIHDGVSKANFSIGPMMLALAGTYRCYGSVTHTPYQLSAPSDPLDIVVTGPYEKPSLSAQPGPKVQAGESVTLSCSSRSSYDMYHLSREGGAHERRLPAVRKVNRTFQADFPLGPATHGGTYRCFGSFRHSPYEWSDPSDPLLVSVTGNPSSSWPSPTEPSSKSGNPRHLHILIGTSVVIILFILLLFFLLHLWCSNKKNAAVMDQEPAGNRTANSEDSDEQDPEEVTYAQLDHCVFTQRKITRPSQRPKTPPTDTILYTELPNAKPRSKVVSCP
Source text: as §1, §2

[8] = biological target: B6; test: FACS, HHLA2-Ig staining of 3T3 cells expressing KIR3DL3 (FIG. 2A)
Source text: as §1, §2

B4: TMIGD2 expressed on 3T3 cells (receptor, UniProt Q96BF3 23-282, looked up)
chain: LSVQQGPNLLQVRQGSQATLVCQVDQATAWERLRVKWTKDGAILCQPYITNGSLSLGVCGPQGRLSWQAPSHLTLQLDPVSLNHSGAYVCWAAVEIPELEEAEGNITRLFVDPDDPTQNRNRIASFPGFLFVLLGVGSMGVAAIVWGAWFWGRRSCQQRDSGNSPGNAFYSNVLYRPRGAPKKSEDCSGEGKDQRGQSIYSTSFPQPAPRQPHLASRPCPSPRPCPSPRPGHPVSMVRVSPRPSPTQQPRPKGFPKVGEE
notes: whole, on cells
- binding result [3]: binds

B5: KIR3DL3 D0D1D2-Ig fusion polypeptide (Fc fusion)
chain: QDKPFLSAWPGTVVSEGQHVTLQCRSRLGFNEFSLSKEDGMPVPELYNRIFRNSFLMGPVTPAHAGTYRCCSSHPHSPTGWSAPSNPVVIMVTGVHRKPSLLAHPGPLVKSGETVILQCWSDVRFERFLLHREGITEDPLRLVGQLHDAGSQVNYSMGPMTPALAGTYRCFGSVTHLPYELSAPSDPLDIVVVGLYGKPSLSAQPGPTVQAGENVTLSCSSRSLFDIYHLSREAEAGELRLTAVLRVNGTFQANFPLGPVTHGGNYRCFGSFRALPHAWSDPSDPLPVSVTGNSRNLHVL
notes: Expressed in an S2 system; also called whole extracellular portion of KIR3DL3; whole extracellular part of KIR3DL3; not shown: human IgG1 Fc tag
- binding result [2]: binds

Binder: B6
- binding result [4]: binds

B8: monoclonal 12A10 (antibody, V domains shown)
VH: QAYLQQSGAELVRSGASVKMSCKASGYTFTSYNMHWVKQTPGQGLEWIGYIFPGDGGTNYNQKFKGKATLTADTSSSTAYMQISSLTSEDSAVYFCARSGYYGNYEGFAYWGQGTLVTVSA
VL: DIKMTQSPSSMYASLGERVTITCKASQDINSYLSWFQQKPGKSPKTLIYRANRLVDGVPSRFSGSGSGQDYSLTISSLEYEDMGIYYCLHYAEFPYTFGGGTKLEIKR
- Kd [1]: 0.69 nM

B9: HHLA2-Ig fusion polypeptide (Fc fusion, UniProt Q9UM44 23-344, looked up)
chain: IFPLAFFIYVPMNEQIVIGRLDEDIILPSSFERGSEVVIHWKYQDSYKVHSYYKGSDHLESQDPRYANRTSLFYNEIQNGNASLFFRRVSLLDEGIYTCYVGTAIQVITNKVVLKVGVFLTPVMKYEKRNTNSFLICSVLSVYPRPIITWKMDNTPISENNMEETGSLDSFSINSPLNITGSNSSYECTIENSLLKQTWTGRWTMKDGLHKMQSEHVSLSCQPVNDYFSPNQDFKVTWSRMKSGTFSVLAYYLSSSQNTIINESRFSWNKELINQSDFSMNLMDLNLSDSGEYLCNISSDEYTLLTIHTVHVEPSQETASHN
notes: also called HHLA2 protein; not shown: Ig part
- binding result [6]: no binding
- binding result [7]: no binding
- binding result [8]: binds

Now from value to binder:

- Kd [1]: 0.29 nM
B1: monoclonal 11G8 (antibody, V domains shown)
VH: QVQLQQSGPDLVRPGVSVKISCKGSGYTFTDYAMHWVKQSHAKSLEWIGVISTDSGTTNYNQKFKGKATMTVDKSSSTAYMDLARLTSEDSAIYYCARDSSYYVRFSYWGQGTLVTVSA
VL: SIVMTQTPKFLLVSVGDRVTITCKASQSVSNDVAWYQQKPGQSPKLLIYYASNRYTGVPDRFTGSGYGTDFTFTISTVQAEDLAVYFCQQDYSSPWTFGGGTKLEIKR
notes: Mouse hybridoma mAb; Entries include leader

- binding result [2]: binds
B2: KIR3DL3 D0-Ig fusion polypeptide (Fc fusion)
chain: QDKPFLSAWPGTVVSEGQHVTLQCRSRLGFNEFSLSKEDGMPVPELYNRIFRNSFLMGPVTPAHAGTYRCCSSHPHSPTGWSAPSNPVVIMVTGVHRKPSLLA
notes: Expressed in an S2 system; also called KIR3DL3 DO-Ig; KIR3DL3 D0(Q26-A128)-Ig; not shown: human IgG1 Fc tag

- Kd [1]: 0.51 nM
B3: monoclonal 3B7 (antibody, V domains shown)
VH: QVQLQQSGPEVVRPGVSVKISCKGSGYTFSDYTMHWVKQSHAKSLEWIGVISTDNGNTNYNQKFKGKATMTVDKSSSTAYMELARLTSEDSAIYYCAREARDYGSIYALDYWGQGTSVTVS
VL: DIQMTQSPASLSASVGETVTITCRASGNIHNYLAWYQQKQGKSPQLLVYNAKTLADGVPSRFSGSGSGTQYSLKINNLQPEDFGNYYCQHFWSTPWTFGGGTKLEIKR
notes: Mouse hybridoma mAb; Entries include leader; Counted on the printed text

- binding result [5]: binds
B7: TMIGD2-mIg fusion polypeptide (Fc fusion, UniProt Q96BF3 23-150, looked up)
chain: LSVQQGPNLLQVRQGSQATLVCQVDQATAWERLRVKWTKDGAILCQPYITNGSLSLGVCGPQGRLSWQAPSHLTLQLDPVSLNHSGAYVCWAAVEIPELEEAEGNITRLFVDPDDPTQNRNRIASFPG
notes: not shown: mouse Ig part (mIg), detected with anti-mouse IgG Fc
